How the values were obtained:
Format in all cases: cell-based
α4β7 = biological target: T1, α4β7 (Homo sapiens, UniProt P13612+P26010); assay: α4β7 adhesion assay: RPMI8866 cell adhesion to zz-MAdCAM; settings: SVVYGLR peptide with the residue mutated to alanine
T1 construct: RPMI8866 cells which express α4β7, and small amounts of α4β1 and α5β1 were used; endogenous in cells; host or cells: RPMI8866 cells
T1 sequence (P13612 34-1032): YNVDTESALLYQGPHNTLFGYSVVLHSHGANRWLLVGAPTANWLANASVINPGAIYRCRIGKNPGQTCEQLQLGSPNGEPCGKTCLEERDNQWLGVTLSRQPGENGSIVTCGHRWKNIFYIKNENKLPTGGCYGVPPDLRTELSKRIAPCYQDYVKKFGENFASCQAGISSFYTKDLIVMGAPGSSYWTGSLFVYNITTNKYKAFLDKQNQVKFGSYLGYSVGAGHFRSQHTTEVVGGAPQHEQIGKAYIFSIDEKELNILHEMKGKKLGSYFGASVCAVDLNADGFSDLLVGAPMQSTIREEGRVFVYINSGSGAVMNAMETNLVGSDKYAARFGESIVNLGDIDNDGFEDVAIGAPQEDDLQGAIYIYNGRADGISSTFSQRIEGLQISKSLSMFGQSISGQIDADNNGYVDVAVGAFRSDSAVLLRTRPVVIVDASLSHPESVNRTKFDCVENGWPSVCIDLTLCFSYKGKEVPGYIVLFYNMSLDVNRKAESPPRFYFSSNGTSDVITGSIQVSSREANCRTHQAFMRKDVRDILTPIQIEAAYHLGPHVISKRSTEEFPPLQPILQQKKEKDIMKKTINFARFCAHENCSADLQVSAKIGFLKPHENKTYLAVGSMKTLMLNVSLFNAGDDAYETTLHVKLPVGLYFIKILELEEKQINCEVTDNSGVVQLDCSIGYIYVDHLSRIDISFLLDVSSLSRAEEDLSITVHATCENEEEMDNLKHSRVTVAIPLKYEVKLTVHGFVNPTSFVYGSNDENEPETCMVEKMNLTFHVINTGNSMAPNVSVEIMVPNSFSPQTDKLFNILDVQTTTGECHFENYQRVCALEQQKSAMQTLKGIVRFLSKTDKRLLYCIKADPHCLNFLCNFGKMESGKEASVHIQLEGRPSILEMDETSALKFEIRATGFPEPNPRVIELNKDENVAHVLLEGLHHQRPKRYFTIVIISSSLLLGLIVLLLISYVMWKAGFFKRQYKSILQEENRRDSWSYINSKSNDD
T1 sequence (P26010 20-798): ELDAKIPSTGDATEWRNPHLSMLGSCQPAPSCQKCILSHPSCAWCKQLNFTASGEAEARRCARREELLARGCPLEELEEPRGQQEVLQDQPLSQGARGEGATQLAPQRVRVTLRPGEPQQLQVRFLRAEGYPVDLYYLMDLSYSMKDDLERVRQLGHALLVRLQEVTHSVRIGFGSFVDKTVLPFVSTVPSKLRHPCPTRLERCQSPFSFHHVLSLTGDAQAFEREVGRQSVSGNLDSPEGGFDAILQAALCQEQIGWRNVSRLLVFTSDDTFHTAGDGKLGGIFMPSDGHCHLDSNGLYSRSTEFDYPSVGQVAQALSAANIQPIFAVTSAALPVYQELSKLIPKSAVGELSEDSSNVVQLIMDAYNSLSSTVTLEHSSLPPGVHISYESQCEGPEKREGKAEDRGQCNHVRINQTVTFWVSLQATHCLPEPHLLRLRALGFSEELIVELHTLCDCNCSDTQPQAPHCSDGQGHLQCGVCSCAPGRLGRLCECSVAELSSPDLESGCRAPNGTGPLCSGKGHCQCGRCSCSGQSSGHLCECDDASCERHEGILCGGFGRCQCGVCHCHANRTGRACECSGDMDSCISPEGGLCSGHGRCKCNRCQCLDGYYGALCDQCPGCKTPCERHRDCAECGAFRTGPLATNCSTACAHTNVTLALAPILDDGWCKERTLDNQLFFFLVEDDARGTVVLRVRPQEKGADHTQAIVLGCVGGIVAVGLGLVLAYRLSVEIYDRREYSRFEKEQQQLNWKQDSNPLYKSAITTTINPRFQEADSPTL
Description: The recombinant zz-MAdCAM was absorbed onto Maxisorp plate pre-coated for 2.5 hours at 37° C. with 100 μL of human IgG, and then washed twice with PBS. For capture the recombinant zz-MAdCAM was diluted to the appropriate concentration in 3% BSA/PBS, 100 μl added to each well, and incubated overnight at 4° C. Prior to use plates were washed twice in PBS.
For the α4β7 adhesion assay RPMI8866 cells were washed in cation free HBSS supplemented with 1 mM EDTA, pelleted and labelled by incubating with BCECF (Molecular Probes) in cation-free HBSS at 37° C. for 10 minutes. At this stage cells were also co-incubated with […] human IgG to block endogenous Fc receptors. Cells were then washed once more in cation-free HBSS and then used in the adhesion assay at a final concentration of 3×10^6 cells ml^−1 in the presence of the appropriate treatment as indicated. To prevent cells clumping the assay plate was finally centrifuged at 400 rpm for 3 minutes without the brake. Cells were then incubated for 20 minutes at 37° C. and then washed twice in PBS before reading directly in a plate reader. For antibody inhibition studies the cells were preincubated with the appropriate antibody at […] for 5 minutes at room temperature prior to being placed in the incubator.

α4β1 [1] = biological target: T2, α4β1 (Homo sapiens, UniProt P05556+P13612); assay: J6 cell adhesion to GST-CS-1 (CS-1 fragment of fibronectin); settings: SVVYGLR peptide with the residue mutated to alanine
T2 construct: Of the integrins analysed J6 express only α5β1 and α4βwhile HL60 express α4β1 and α5β1 and αLβ2; endogenous in cells; host or cells: J6 cells
Description: (§1) All proteins were coated onto MAXISORP plates (Nunc) overnight at 4° C. Each protein was diluted in PBS at the concentrations indicated, and a total volume of 100 μl added per well. Plates were washed twice in PBS then blocked with 3% BSA/PBS for 1 hr at 37° C., and finally washed twice in PBS. Routinely HL60 cells were pelleted and washed once in HBSS (Sigma) then spread in 25 mM Hepes 7.5, HBSS at 2×10^6 ml^−1 (100 μl per well) in the presence of 0.2 mM MnCl2 and 50 ng/ml TPA, with other additions as indicated. J6 cells were likewise pelleted and washed once in HBSS (Sigma) then spread in 25 mM Hepes (pH7.5), HBSS at 2×10^6ml^−1 (100 μl per well) in the presence of 0.2 mM MnCl2 and other additions as indicated. For antibody inhibition cells were preincubated with the antibody (10 μg/ml) on ice for 10 minutes. Cells were then allowed to attach for 35 minutes at 37° C., washed twice in PBS, once in ethanol, and fixed in ethanol for 20 minutes at room temperature. For quantitation cells were visualised by staining with 0.1% crystal violet (Sigma) for 10 minutes then lysed in 0.5% TRITON X-100 (Sigma) and read at 570 nm in a Wallac Victor plate reader.

α4β1 [2] = assay: as above; settings: J6/CS-1 versus RPMI8866/zz-MAdCAM
Description: as §1

T2 sequence (P05556 21-798, one chain of several): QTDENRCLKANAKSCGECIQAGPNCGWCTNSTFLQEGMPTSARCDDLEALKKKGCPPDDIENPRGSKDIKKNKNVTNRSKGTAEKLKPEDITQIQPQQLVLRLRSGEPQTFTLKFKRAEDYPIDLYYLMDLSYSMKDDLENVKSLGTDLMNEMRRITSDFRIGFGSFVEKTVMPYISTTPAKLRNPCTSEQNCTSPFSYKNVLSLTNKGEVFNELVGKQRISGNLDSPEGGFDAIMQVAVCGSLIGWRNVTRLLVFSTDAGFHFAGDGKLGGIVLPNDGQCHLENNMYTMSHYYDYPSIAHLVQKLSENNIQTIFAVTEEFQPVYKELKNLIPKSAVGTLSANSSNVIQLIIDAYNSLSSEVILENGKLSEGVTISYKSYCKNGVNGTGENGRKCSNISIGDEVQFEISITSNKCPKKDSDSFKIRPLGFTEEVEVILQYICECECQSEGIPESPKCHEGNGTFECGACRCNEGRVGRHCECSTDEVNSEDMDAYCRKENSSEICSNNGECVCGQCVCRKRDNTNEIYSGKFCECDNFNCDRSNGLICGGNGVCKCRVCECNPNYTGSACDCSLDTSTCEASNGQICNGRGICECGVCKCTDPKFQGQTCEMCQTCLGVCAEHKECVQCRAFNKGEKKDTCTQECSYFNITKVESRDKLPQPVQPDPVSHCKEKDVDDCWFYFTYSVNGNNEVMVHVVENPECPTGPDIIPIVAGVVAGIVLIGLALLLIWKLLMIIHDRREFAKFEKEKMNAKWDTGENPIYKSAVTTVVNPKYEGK

Arg168: SVVYGLR synthetic peptide in which Arg168 is mutated to alanine (SVVYGLA; SVVYGLR peptide; UniProt P10451 162-168, looked up, variant R168A)
Relative potency compared to parent peptide SVVYGLR against α4β7 (RPMI8866 adhesion to zz-MAdCAM) (α4β7): less potent
Relative potency compared to parent peptide SVVYGLR against α4β1 (J6 adhesion to GST-CS-1) (α4β1 [1]): more potent
Selectivity between α4β1 and α4β7 on mutating the residue (α4β1 [2]): introduces a degree of selectivity
